# According to PMC6105678:
# Key:
# [1] = target: Bonsai gelsolin, fragment 28–161 of gelsolin (human); test: SAXS; 28–161 at 8 mg/ml, 1 mM EGTA, 30 °C
# [2] = target: Bonsai gelsolin, fragment 28–161 of gelsolin (human); test: SAXS; 28–161 at 8 mg/ml, 1 mM EGTA, 40 °C
# [3] = target: Bonsai gelsolin, fragment 28–161 of gelsolin (human); test: SAXS; 28–161 at 8 mg/ml, 1 mM free Ca2+, 40 °C
# [4] = target: Bonsai gelsolin, fragment 28–161 of gelsolin (human); test: SEC; 8 mg/ml in EGTA buffer heated at 30 °C for 30 min, cooled to room temperature; 200 μl injected, column at room temperature
substance,measurement,setting,value
"Bonsai gelsolin, fragment 28–161 of gelsolin (domain or fragment)",stoichiometry N,[1],2
same,stoichiometry N,[2],4
same,stoichiometry N,[3],2
same,stoichiometry N,[4],2
